Data published in patent US20240317857A1 (AMPSOURCE BIOPHARMA SHANGHAI, published 2024).
Numbering of substitutions follows the chain as printed.

T1: His-labeled cynomolgus monkey CD3E (purchased from Acro Biosystems) (cynomolgus monkey, UniProt Q95LI5 22-117)
T1 construct: also called Cynomolgus monkey CD3E antigen; not shown: His label
T1 sequence (looked up): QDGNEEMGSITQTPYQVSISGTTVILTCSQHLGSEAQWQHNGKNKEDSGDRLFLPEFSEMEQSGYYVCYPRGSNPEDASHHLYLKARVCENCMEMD

B1: humanized antibody AB614 (antibody, human IgG4 S228P, kappa, V domains shown)
VH: EVQLLESGGGLVQPGGSLKLSCAASGFTFNTYAMNWVRQAPGKGLEWVGRIRSKINNYATYYADSVKDRFTISRDDSKNTAYLQMNNLKTEDTAMYYCVRHDNFYGSTYSWFADWGQGTLVTVSS
VL: ELVVTQEPSLTVSPGGTVTLTCRSSTGVVTTSNYANWVQEKPDHLFTGLIGATNYRAPGTPARFSGSLLGGKAALTLSGVQPEDEAIYFCVLWYSNHWVFGGGTKLTVLR
notes: Humanized from AP591 CDRs
B2: murine monoclonal antibody AP591 (antibody, mouse IgG1, V domains shown)
VH: B1 VH with L5V, G15K, K67R, K78Q, N79S, T80M, A81L, N86S, S125A
VL: AVVTQESALTTSPGETVTLTCRSSTGVVTTSNYANWVQEKPDHLFTGLIGATNYRVPGVPARFSGSLIGDKAALTITGAQTEDEAIYFCVLWYSNHWVFGGGTKLTVL
B3: humanized antibody AB611 (antibody, human IgG4 S228P, kappa, V domains shown)
VH: EVQLVQSGAEVKKPGSSVKVSCKASGYTFTNNYIHWVKEKPGQGLEWIGWIYPGDGTTKYNEKFKGKTTLASDKSTNTAYMELSSLRSEDTAIYFCTRNNNYYFDYWGQGTTVTVSS
VL: DIVMTQSPDSLAVSLGERATMNCKSSQSLFNSRTRKNYLAWYQQKPGESPKLLIYWASTRESGVPDRFSGSGSGTDFTLTISSLQAEDVAVYYCKQSFILRTFGGGTKVEIKR
notes: Humanized from AP831 CDRs
B4: murine monoclonal antibody AP191 (antibody, mouse IgG1, V domains shown)
VH: QVQLQQSGPELVKPGASMKMSCKASGYTFTSYYIHWVKQRPGQGLEWIGWIYPGDGSTKFNEKFRGKTSLTADKSSNTAYMFLSSLTSEDSAIYFCARDGYSLYYFEFWGHGTTLTVSS
VL: DIVMSQSPSSLAVSAGETVTMSCKSSQSLLNSRTRKTYLAWYQQKPGQSPKLLIYWASTRDSGVPDRFTGSGSGTDFTLTISSVQAEDLAVYYCVQSYTLRTFGGGTKLEIK
B5: murine monoclonal antibody AP831 (antibody, mouse IgG1, V domains shown)
VH: QVQLQQSGPELVKPGTSVKMSCKASGYTFTNNYIHWVKEKPGEGLEWIGWIYPGDGTTKYNEKFKGKTTLASDKSSNTVYMFLSSLTSEDSAIYFCTRNNNYYFDYWGQGTTLTVSS
VL: B4 VL with T18K, S22N, L30F, T37N, D61E, V91L, V95K, Y98F, T99I
B6: humanized antibody AB616 (antibody, V domains shown)
VH: B1 VH with N30D
VL: ELVVTQEPSLTVSPGGTVTLTCRSSTGVVTTSNYANWVQEKPDHLFTGLIGATNYRAPGTPARFSGSLLGGKAALTLSGVQPEDEAIYFCVLWYSNHWVFGGGTKLTVL
B7: humanized antibody AB627 (antibody, V domains shown)
VH: B1 VH with F112H
VL: B6 VL
B8: humanized antibody AB618 (antibody, V domains shown)
VH: B1 VH
VL: B6 VL with A52D
B9: humanized antibody AB623 (antibody, V domains shown)
VH: B1 VH with F104H
VL: B6 VL
B10: humanized antibody AB620 (antibody, V domains shown)
VH: B1 VH with N30D
VL: B6 VL with N54D
B11: humanized antibody AB625 (antibody, V domains shown)
VH: B1 VH with Y109H
VL: B6 VL
B12: humanized antibody AB621 (antibody, V domains shown)
VH: B1 VH
VL: B6 VL with Y34H
B13: humanized antibody AB622 (antibody, V domains shown)
VH: B1 VH
VL: B6 VL with Y55H
B14: humanized antibody AB615 (antibody, V domains shown)
VH: B1 VH with T28D
VL: B6 VL
B15: humanized antibody AB617 (antibody, V domains shown)
VH: B1 VH with T31D
VL: B6 VL
B16: humanized antibody AB619 (antibody, V domains shown)
VH: B1 VH
VL: B6 VL with N54D
B17: humanized antibody AB626 (antibody, V domains shown)
VH: B1 VH with W111H
VL: B6 VL
B18: humanized antibody AB624 (antibody, V domains shown)
VH: B1 VH with Y105H
VL: B6 VL

molecular target: T2, human CD3 on human T cells (human, UniProt P07766 23-207); assay: flow cytometry on human primary T cells
T2 construct: whole, on cells; also called human primary T cells; NFAT-Jurkat cells
T2 sequence (P07766 23-207): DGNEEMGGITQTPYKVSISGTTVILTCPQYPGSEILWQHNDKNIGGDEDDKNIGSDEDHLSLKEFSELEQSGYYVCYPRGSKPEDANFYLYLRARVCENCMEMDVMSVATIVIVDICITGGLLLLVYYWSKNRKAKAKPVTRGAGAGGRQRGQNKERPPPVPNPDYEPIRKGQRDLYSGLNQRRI

First: B1
Second: B2
The EC50 of the first is 7.6-fold lower: 1.18 nM for the first, 8.91 nM for the second.

First: B3
Second: B4
The EC50 of the first is 16-fold lower: 0.174 nM for the first, 2.74 nM for the second.

With B5 the EC50 was 0.825 nM.

molecular target: T1, His-labeled cynomolgus monkey CD3E …; assay: ELISA, plate coated with His-labeled cynomolgus monkey CD3E
Experimental: (§1) A microtiter plate was coated with 0.1 μg/mL His-labeled human or cynomolgus monkey CD3E (purchased from Acro Biosystems) (100 μL/well) overnight at 4° C. The coating solution was discarded, and the microtiter plate was blocked with 1% PBSB (200 μL/well), incubated for 1 h at 37° C. and washed with PBS containing 0.05% Tween-20. The diluted CD3 humanized antibodies AB611 and AB614 with a series of concentrations were added (100 μL/well), incubated for 1 h at 37° C. and washed with 0.05% PBST, and HRP-labeled goat anti-human IgG (H+L) (Jackson Laboratory) was added as the detection antibody and incubated for 1 h at 37° C. The wells were washed three times with 0.05% PBST, added with TMB (100 μL/well) and developed at room temperature for 5 min. 0.2 M H₂SO₄ was added to terminate the reaction, 50 μL/well. Absorption values were read by a microplate reader at double wavelengths 450 nm/620 nm. Plotting was performed by software GraphPad Prism 6 with OD 450 nm/620 nm as the Y-axis and an antibody concentration as the X-axis.

Compared with B1, B3 is 1.6-fold lower in EC50: 0.00755 nM for the first, 0.00483 nM for the second.

molecular target: T2, human CD3 on human T cells; assay: cell-based or functional assay

With B1 the “EC50 of activating T cells (luciferase of NFAT RE reporter Jurkat T cells)” value was 0.142 nM.

molecular target: T3, His-labeled human CD3E (human, UniProt P07766 23-126); assay: BLI (Octet), His-labeled human CD3E on Ni-NTA sensors, antibody 3.125-100 nM
T3 construct: also called human CD3E antigen; antigen CD3E; not shown: His label
Experimental: (§2) The binding affinity constants of the purified murine monoclonal antibodies to antigen CD3E were determined by […] (BLI) with the ForteBio Octet RED&QK system from PALL Corporation. Concentration gradients of a multichannel parallel quantitative analysis were set to 3.125, 6.25, 12.5, 25, 50 and 100 nM, and His-labeled human CD3E (10 μg/mL) was coupled to Ni-NTA sensors.

T3 sequence (P07766 23-126): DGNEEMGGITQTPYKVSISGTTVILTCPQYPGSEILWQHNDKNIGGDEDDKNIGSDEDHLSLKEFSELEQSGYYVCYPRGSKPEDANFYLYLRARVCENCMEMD

Going from B2 to B4, the Kd rises from 0.0194 nM to 0.121 nM (6.2-fold).

First: B2
Second: B4
The koff of the first is 9.4-fold lower: 1.04e-05 s⁻¹ for the first, 9.73e-05 s⁻¹ for the second.

B2 and B4 are within 1.5-fold of each other in kon: 539000 M⁻¹ s⁻¹ for the first, 802000 M⁻¹ s⁻¹ for the second.

Work on B5 yielded a kon of 692000 M⁻¹ s⁻¹.

molecular target: T4, human CD3E (purchased from Acro Biosystems) (human, UniProt P07766 23-126); assay: ELISA, plate coated with human CD3E
T4 construct: also called human CD3 antigen; human CD3E molecules
Experimental: A microtiter plate was coated with 100 μL of 0.1 μg/mL human CD3E (purchased from Acro Biosystems) overnight at room temperature. The coating solution was discarded, and the wells were blocked with skimmed milk dissolved in phosphate buffered saline (PBS) for 0.5 hours and washed with PBS containing 0.05% Tween-20 (PBST). Then the purified murine antibodies AP191, AP591 and AP831 against human CD3 were added with 50 μL per well and incubated for 1 h at room temperature. The wells were washed with 0.05% PBST. Then 50 μL of HRP-labeled goat anti-mouse IgG polyclonal antibody (purchased from Jackson Laboratory) was added per well as the detected antibody and incubated for 1 h at 37° C. The wells were washed three times with 0.05% PBST, added with TMB (100 μL/well) and developed at room temperature for 5 min. 0.2 M H₂SO₄ was added to terminate the reaction, 50 μL/well. Absorption values were read by a microplate reader at double wavelengths 450 nm/620 nm. Plotting was performed by software GraphPad Prism 6 with OD 450 nm/620 nm as the Y-axis and an antibody concentration as the X-axis.

T4 sequence (P07766 23-126 limits assumed): as the sequence (P07766 23-126) above

First: B2
Second: B4
The EC50 of the first is 1.9-fold higher: 0.0283 nM for the first, 0.0149 nM for the second. The second is the more potent here.

With B5 the EC50 was 0.0404 nM.

molecular target: T3, His-labeled human CD3E; assay: BLI (Octet), method of Example 3: His-labeled human CD3E on Ni-NTA sensors
Experimental: as §2
For example, the experimental method for determining the kinetic constants and affinity equilibrium dissociation constants of the humanized antibodies was as described in Example 3.

Going from B1 to B6, the Kd rises from 0.0196 nM to 0.116 nM (5.9-fold).

B7 and B8 cannot be ordered by Kd: ≤ 0.00264 nM for the first, < 0.001 nM for the second.

Going from B9 to B10, the Kd falls from 23.3 nM to 0.169 nM (140-fold). The second binds more tightly here.

B11 and B12 are within 1.5-fold of each other in Kd: 1.8 nM for the first, 2.12 nM for the second.

Going from B13 to B14, the Kd falls from 1.45 nM to 0.668 nM (2.2-fold).

First: B15
Second: B16
The Kd of the first is 23-fold higher: 2.77 nM for the first, 0.123 nM for the second. The second binds more tightly here.

Going from B17 to B18, the Kd falls from 182 nM to 0.677 nM (270-fold). The second binds more tightly here.

Going from B1 to B6, the koff rises from 1.45e-05 s⁻¹ to 2.97e-05 s⁻¹ (2-fold).

B7 and B8 cannot be ordered by koff: < 1e-07 s⁻¹ for the first, < 1e-07 s⁻¹ for the second.

Going from B9 to B10, the koff falls from 0.00119 s⁻¹ to 4.26e-05 s⁻¹ (28-fold).

B11 and B12 are within 1.5-fold of each other in koff: 0.000318 s⁻¹ for the first, 0.000369 s⁻¹ for the second.

Going from B13 to B14, the koff falls from 0.000391 s⁻¹ to 0.00017 s⁻¹ (2.3-fold).

Going from B15 to B16, the koff falls from 0.000698 s⁻¹ to 3.41e-05 s⁻¹ (20-fold).

First: B17
Second: B18
The koff of the first is 8.4-fold higher: 0.00169 s⁻¹ for the first, 0.000201 s⁻¹ for the second.

Compared with B1, B6 is 2.9-fold lower in kon: 741000 M⁻¹ s⁻¹ for the first, 256000 M⁻¹ s⁻¹ for the second.

Going from B7 to B8, the kon rises from 7300 M⁻¹ s⁻¹ to 51200 M⁻¹ s⁻¹ (7-fold).

Compared with B9, B10 is 4.9-fold higher in kon: 51200 M⁻¹ s⁻¹ for the first, 253000 M⁻¹ s⁻¹ for the second.

B11 and B12 are within 1.5-fold of each other in kon: 177000 M⁻¹ s⁻¹ for the first, 174000 M⁻¹ s⁻¹ for the second.

B13 and B14 are within 1.5-fold of each other in kon: 270000 M⁻¹ s⁻¹ for the first, 254000 M⁻¹ s⁻¹ for the second.

B15 and B16 are within 1.5-fold of each other in kon: 252000 M⁻¹ s⁻¹ for the first, 276000 M⁻¹ s⁻¹ for the second.

Going from B17 to B18, the kon rises from 9300 M⁻¹ s⁻¹ to 296000 M⁻¹ s⁻¹ (32-fold).

molecular target: T3, His-labeled human CD3E; assay: ELISA, plate coated with His-labeled human CD3E
Experimental: as §1

B1 and B3 are within 1.5-fold of each other in EC50: 0.00913 nM for the first, 0.00833 nM for the second.
